{"source": "patent US20240400652A1", "biological_target": "SARS-CoV-2 spike with Y453F (SARS-CoV-2) (UniProt P0DTC2)", "assay": "cell-based or functional assay", "data": [{"substance": "REGN10987 (antibody)", "values": [{"measurement": "decrease in neutralization, live virus or pseudovirus (fold decrease)", "value": 4}]}]}
